The text below walks through data of patent publication US20190055314A1 (ADAGENE, published 2019).

Numbering of substitutions follows the chain as printed.

Assay [1] has as its target T1, human CD137-His6 (Sino Biological #10041-H08H) (human, UniProt Q07011 24-186).
T1 construct: Bought; also called human CD137 protein; not shown: His6 tag
Nature of the assay: SPR Biacore, IgG captured; Table 3 run, IgG captured by anti-human Fc; Table 1b gives 3.8E-08 M from a separate measurement. (In general: Surface plasmon resonance follows binding to a sensor surface in real time, without labels.)

Assay [2] deals with T2, CD95.
T2 chain: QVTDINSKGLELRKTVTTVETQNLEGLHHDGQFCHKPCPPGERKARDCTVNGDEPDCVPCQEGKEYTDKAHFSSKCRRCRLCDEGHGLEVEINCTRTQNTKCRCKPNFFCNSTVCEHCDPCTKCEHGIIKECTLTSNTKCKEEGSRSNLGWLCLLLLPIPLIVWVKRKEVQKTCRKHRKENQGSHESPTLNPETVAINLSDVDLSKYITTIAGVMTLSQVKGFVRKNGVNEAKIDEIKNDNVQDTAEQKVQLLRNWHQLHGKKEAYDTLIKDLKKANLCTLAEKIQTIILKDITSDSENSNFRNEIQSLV
Briefly: flow cytometry, HEK293F cells expressing the receptor [Cont.]. On the technique in general: Flow cytometry measures light scatter and fluorescence of single cells or particles in a stream.

The target of assay [3] is T3, CD120a.
T3 chain: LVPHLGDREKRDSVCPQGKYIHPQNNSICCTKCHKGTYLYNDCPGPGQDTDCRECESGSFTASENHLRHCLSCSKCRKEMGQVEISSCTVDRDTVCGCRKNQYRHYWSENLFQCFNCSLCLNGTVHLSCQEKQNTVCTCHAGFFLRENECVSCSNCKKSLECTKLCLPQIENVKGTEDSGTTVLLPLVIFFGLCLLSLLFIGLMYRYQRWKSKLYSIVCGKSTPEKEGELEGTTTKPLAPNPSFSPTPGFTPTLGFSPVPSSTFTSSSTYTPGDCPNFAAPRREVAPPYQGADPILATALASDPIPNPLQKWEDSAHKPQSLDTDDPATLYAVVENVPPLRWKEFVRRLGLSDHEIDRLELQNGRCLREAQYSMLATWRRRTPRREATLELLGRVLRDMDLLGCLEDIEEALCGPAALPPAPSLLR
The assay is described as above.

Assay [4] addresses T2, CD95. Briefly: flow cytometry, HEK293F cells expressing the receptor, antibody 100 nM [Cont.].
The target of assay [5] is T3, CD120a. The description is as above.
Assay [6] has as its target T4, GITR overexpressed on HEK293F cells (UniProt Q9Y5U5 26-241, limits assumed).
T4 construct: whole, on cells
T4 sequence (looked up): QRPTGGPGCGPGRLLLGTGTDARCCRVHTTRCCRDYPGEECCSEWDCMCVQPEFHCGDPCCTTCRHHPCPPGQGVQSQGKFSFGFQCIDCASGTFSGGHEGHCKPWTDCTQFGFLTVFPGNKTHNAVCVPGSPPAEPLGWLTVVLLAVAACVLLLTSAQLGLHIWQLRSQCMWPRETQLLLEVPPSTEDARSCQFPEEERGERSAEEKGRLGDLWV
Nature of the assay: flow cytometry, HEK293F cells expressing the receptor.

Assay [7] deals with T5, CD40 overexpressed on HEK293F cells (UniProt P25942 21-277, limits assumed).
T5 construct: whole, on cells
T5 sequence (P25942 21-277 limits assumed): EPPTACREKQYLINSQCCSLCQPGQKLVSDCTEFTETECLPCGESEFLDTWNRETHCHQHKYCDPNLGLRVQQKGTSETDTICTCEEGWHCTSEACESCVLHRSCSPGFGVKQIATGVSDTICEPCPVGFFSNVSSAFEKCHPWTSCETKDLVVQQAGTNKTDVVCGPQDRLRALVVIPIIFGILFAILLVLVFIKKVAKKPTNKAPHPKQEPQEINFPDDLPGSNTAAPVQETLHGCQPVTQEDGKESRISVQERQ
Described as above.

For assay [8], the target named is T6, CD27 overexpressed on HEK293F cells (UniProt P26842 20-260, limits assumed).
T6 construct: whole, on cells
T6 sequence (looked up): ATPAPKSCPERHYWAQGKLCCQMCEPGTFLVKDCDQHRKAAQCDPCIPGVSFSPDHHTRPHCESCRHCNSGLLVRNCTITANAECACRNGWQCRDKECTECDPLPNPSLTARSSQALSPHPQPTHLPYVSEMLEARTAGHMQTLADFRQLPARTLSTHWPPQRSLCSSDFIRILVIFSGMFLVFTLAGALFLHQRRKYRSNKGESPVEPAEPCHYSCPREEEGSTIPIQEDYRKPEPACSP
Described as above.

For assay [9], the target named is T7, full-length mouse CD137 on the cell surface (mouse, UniProt P20334 24-178).
T7 sequence: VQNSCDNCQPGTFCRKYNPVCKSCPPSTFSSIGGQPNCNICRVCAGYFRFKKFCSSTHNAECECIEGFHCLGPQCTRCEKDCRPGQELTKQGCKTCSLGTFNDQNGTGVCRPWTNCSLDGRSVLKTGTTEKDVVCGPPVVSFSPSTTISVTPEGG
Briefly: cell-based or functional assay.

The next assay concerns the target T8, Hu_F53A (human, UniProt Q07011 18-255).
T8 construct: On HEK293F; also called human CD137 F53A
Briefly: flow cytometry, HEK293F.

Another assay addresses T9, Hu_T35A (human, UniProt Q07011 18-255).
T9 construct: On HEK293F; also called human CD137 T35A
Briefly: flow cytometry, HEK293F.

For the next assay, the target named is T10, Hu_F72A (human, UniProt Q07011 18-255).
T10 construct: On HEK293F; also called human CD137 F72A
T10 sequence (Q07011 18-255 F72A): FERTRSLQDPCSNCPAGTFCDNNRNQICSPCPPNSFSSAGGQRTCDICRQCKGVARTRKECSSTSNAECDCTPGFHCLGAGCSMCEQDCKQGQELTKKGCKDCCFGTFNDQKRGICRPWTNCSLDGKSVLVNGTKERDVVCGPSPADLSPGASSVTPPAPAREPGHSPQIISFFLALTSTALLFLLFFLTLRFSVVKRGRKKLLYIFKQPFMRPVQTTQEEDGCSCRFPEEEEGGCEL
Briefly: flow cytometry, HEK293F.

For another assay, the target named is T11, Hu_R66A (human, UniProt Q07011 18-255).
T11 construct: On HEK293F; also called human CD137 R66A
Briefly: flow cytometry, HEK293F.

The target in a further assay is T12, Hu_F92A (human, UniProt Q07011 18-255).
T12 construct: On HEK293F; also called human CD137 F92A
Nature of the assay: flow cytometry, HEK293F.

The target of a further assay is T13, Hu_F36A (human, UniProt Q07011 18-255).
T13 construct: On HEK293F; also called human CD137 F36A
T13 sequence (Q07011 18-255 F36A): as the sequence (Q07011 18-255 F72A) above, with F19A, A55F counted along it
Briefly: flow cytometry, HEK293F.

The next assay deals with T14, Hu_N83A (human, UniProt Q07011 18-255).
T14 construct: On HEK293F; also called human CD137 N83A
T14 sequence (Q07011 18-255 N83A): as the sequence (Q07011 18-255 F72A) above, with A55F, N66A counted along it
Nature of the assay: flow cytometry, HEK293F.

Assay [10] addresses T15, mouse CD137 protein (Biacore) (mouse, UniProt P20334 24-178, limits assumed).
T15 construct: Construct used as SPR analyte not described
T15 sequence: T7 sequence
Briefly: SPR Biacore, IgG captured.

In assay [11] the target is T1, human CD137-His6 (Sino Biological …). Briefly: SPR Biacore, IgG captured.

T9 sequence (Q07011 18-255 T35A): as the sequence (Q07011 18-255 F72A) above, with T18A, A55F counted along it
T8 sequence (Q07011 18-255 F53A): as the sequence (Q07011 18-255 F72A) above, with F36A, A55F counted along it

B1: AG10059 (antibody, human IgG4 S228P, kappa, V domains shown)
VH: EVQLVESGGGLVQPGGSLRLSCAASGYSITSGHYWAWIRQAPGKGLEWVSSISGYGSTTYYADSVKGRFTISRDNSKNTLYLQLNSLRAEDTAVYYCARGGSDAVLGDWFAYWGQGTLVTVSS
VL: DIQLTQSPSSLSASVGDRVTITCRASQGIGSFLAWYQQKPGKAPKLLIYDASNLETGVPSRFSGSGSGTDFTLTISSLQPEDFATYYCQQGYYLWTFGQGTKVEIKR
Consider B1, for which the affinity in assay [1], expressed as Kd, was 24.2 nM.

B2: AG10058 (antibody, human IgG4 S228P, kappa, V domains shown)
VH: EVQLVESGGGLVQPGGSLRLSCAASGFSLSTSGVGVGWIRQAPGKGLEWLALIDWDDDKYYSPSLKSRLTISRDNSKNTLYLQLNSLRAEDTAVYYCARGGSDTVLGDWFAYWGQGTLVTVSS
VL: B1 VL with G28S, I29V, G30S, S31P, F32Y, N53S, T56S, Y93S
Take B2: the binding result with CD95 [2] was “no binding (tested: 100 nM (text paragraph 226))”; in the assay with CD120a [3] it was “no binding (tested: 100 nM (text paragraph 226))”; in [6] it was “no binding (tested: 100 nM (text paragraph 226))”; in assay [7], “no binding (tested: 100 nM (text paragraph 226))”; in [8], “no binding (tested: 100 nM (text paragraph 226))”; with Hu_F53A, “no binding”. Further, the binding result with Hu_T35A, in the assay with Hu_F72A, in the assay with Hu_R66A, with Hu_F92A, with Hu_F36A and with Hu_N83A was “no binding” in each case. The Mean with CD95 [4] is 5370; with CD120a [5], 8070. For the same molecule, the “NFκB luciferase reporter, 293T cells with mouse CD137: EC50 (read off the curve)” value in assay [9] was approximately 3 nM. Also, the values for the Kd in assay [10] and in [11] were 15.2 nM and 5.9 nM, respectively.

As a reminder, the Kd is the equilibrium constant for the complex coming apart.
